B1: mRNA-splicing (parent)
chain: AGUUGCUGCUGGGAGCUCCAGCACAGUGAAAUGGACAGAAGGGCAGAGCAA

Variants of: B1
Assay: exon inclusion enrichment index; higher = more inclusion; WT1 exon 5 minigene, HEK293

Variant	exon inclusion enrichment index
AGUUCACACAAUGAGCUCCAGCACAGUGAAAUGGACAGAAGGGCAGAGCAA	0.0692
AGUUCACACACGGAGCUCCAGCACAGUGAAAUGGACAGAAGGGCAGAGCAA	0.99
AGUUCACACACAGAGCUCCAGCACAGUGAAAUGGACAGAAGGGCAGAGCAA	0.0929
AGUUCACACACCGAGCUCCAGCACAGUGAAAUGGACAGAAGGGCAGAGCAA	0.382
AGUUCACACACUGAGCUCCAGCACAGUGAAAUGGACAGAAGGGCAGAGCAA	0.0425
AGUUCACACAUGGAGCUCCAGCACAGUGAAAUGGACAGAAGGGCAGAGCAA	0.955
AGUUCACACAUAGAGCUCCAGCACAGUGAAAUGGACAGAAGGGCAGAGCAA	0.0375
AGUUCACACAUCGAGCUCCAGCACAGUGAAAUGGACAGAAGGGCAGAGCAA	0.543
AGUUCACACAUUGAGCUCCAGCACAGUGAAAUGGACAGAAGGGCAGAGCAA	0.037
AGUUCACACAGAGAGCUCCAGCACAGUGAAAUGGACAGAAGGGCAGAGCAA	0.208
AGUUCACACAGAAAGCUCCAGCACAGUGAAAUGGACAGAAGGGCAGAGCAA	0.114
AGUUCACACAGACAGCUCCAGCACAGUGAAAUGGACAGAAGGGCAGAGCAA	0.0982
AGUUCACACAGAUAGCUCCAGCACAGUGAAAUGGACAGAAGGGCAGAGCAA	0.016
AGUUCACACAGCGAGCUCCAGCACAGUGAAAUGGACAGAAGGGCAGAGCAA	0.365
AGUUCACACAGCAAGCUCCAGCACAGUGAAAUGGACAGAAGGGCAGAGCAA	0.181
AGUUCACACAGCCAGCUCCAGCACAGUGAAAUGGACAGAAGGGCAGAGCAA	0.0502
AGUUCACACAGCUAGCUCCAGCACAGUGAAAUGGACAGAAGGGCAGAGCAA	0.0133
AGUUCACACAGUGAGCUCCAGCACAGUGAAAUGGACAGAAGGGCAGAGCAA	0.0134
AGUUCACACAGUAAGCUCCAGCACAGUGAAAUGGACAGAAGGGCAGAGCAA	0.0173
AGUUCACACAGUCAGCUCCAGCACAGUGAAAUGGACAGAAGGGCAGAGCAA	0.0217
AGUUCACACAGUUAGCUCCAGCACAGUGAAAUGGACAGAAGGGCAGAGCAA	0.00142
AGUUCACACAGGAAGCUCCAGCACAGUGAAAUGGACAGAAGGGCAGAGCAA	0.277
AGUUCACACAGGACGCUCCAGCACAGUGAAAUGGACAGAAGGGCAGAGCAA	0.899
AGUUCACACAGGAGGCUCCAGCACAGUGAAAUGGACAGAAGGGCAGAGCAA	0.424
AGUUCACACAGGAUGCUCCAGCACAGUGAAAUGGACAGAAGGGCAGAGCAA	0.645
AGUUCACACAGGCAGCUCCAGCACAGUGAAAUGGACAGAAGGGCAGAGCAA	0.0242

Variant	exon inclusion enrichment index
AGUUCACACAGGCCGCUCCAGCACAGUGAAAUGGACAGAAGGGCAGAGCAA	0.145
AGUUCACACAGGCGGCUCCAGCACAGUGAAAUGGACAGAAGGGCAGAGCAA	0.278
AGUUCACACAGGCUGCUCCAGCACAGUGAAAUGGACAGAAGGGCAGAGCAA	0.136
AGUUCACACAGGUAGCUCCAGCACAGUGAAAUGGACAGAAGGGCAGAGCAA	0.00463
AGUUCACACAGGUCGCUCCAGCACAGUGAAAUGGACAGAAGGGCAGAGCAA	0.0603
AGUUCACACAGGUGGCUCCAGCACAGUGAAAUGGACAGAAGGGCAGAGCAA	0.0515
AGUUCACACAGGUUGCUCCAGCACAGUGAAAUGGACAGAAGGGCAGAGCAA	0.0352
AGUUCACACAGGGAACUCCAGCACAGUGAAAUGGACAGAAGGGCAGAGCAA	0.0449
AGUUCACACAGGGAAAUCCAGCACAGUGAAAUGGACAGAAGGGCAGAGCAA	0.00997
AGUUCACACAGGGAAGUCCAGCACAGUGAAAUGGACAGAAGGGCAGAGCAA	0.0227
AGUUCACACAGGGAAUUCCAGCACAGUGAAAUGGACAGAAGGGCAGAGCAA	0.0227
AGUUCACACAGGGACCUCCAGCACAGUGAAAUGGACAGAAGGGCAGAGCAA	0.0588
AGUUCACACAGGGACAUCCAGCACAGUGAAAUGGACAGAAGGGCAGAGCAA	0.0594
AGUUCACACAGGGACGUCCAGCACAGUGAAAUGGACAGAAGGGCAGAGCAA	0.0998
AGUUCACACAGGGACUUCCAGCACAGUGAAAUGGACAGAAGGGCAGAGCAA	0.0687
AGUUCACACAGGGAUCUCCAGCACAGUGAAAUGGACAGAAGGGCAGAGCAA	0.098
AGUUCACACAGGGAUAUCCAGCACAGUGAAAUGGACAGAAGGGCAGAGCAA	0.0461
AGUUCACACAGGGAUGUCCAGCACAGUGAAAUGGACAGAAGGGCAGAGCAA	0.018
AGUUCACACAGGGAUUUCCAGCACAGUGAAAUGGACAGAAGGGCAGAGCAA	0.0659
AGUUCACACAGGGAGCUCCAACACAGUGAAAUGGACAGAAGGGCAGAGCAA	0.0465
AGUUCACACAGGGAGCUCCAAAACAGUGAAAUGGACAGAAGGGCAGAGCAA	0.0529
AGUUCACACAGGGAGCUCCAAGACAGUGAAAUGGACAGAAGGGCAGAGCAA	0.156
AGUUCACACAGGGAGCUCCAAUACAGUGAAAUGGACAGAAGGGCAGAGCAA	0.0694
AGUUCACACAGGGAGCUCCACCACAGUGAAAUGGACAGAAGGGCAGAGCAA	0.0715
AGUUCACACAGGGAGCUCCACAACAGUGAAAUGGACAGAAGGGCAGAGCAA	0.0674

From the RNAGym collection of RNA variant scans (doi:10.1101/gr.219683.116)
